How the values were obtained:
[1] = target: IGLC1 protein (immunoglobulin lambda C1)/immunoglobulin lambda chain/immunoglobulin C1 segment protein (fragment) (human) (UniProt P0CG04); test: BiP-Sepharose pull-down, RA patient III serum (B4), MS of urea eluate; may be indirect
[2] = target: Hypothetical protein/Heat shock 70 kDa protein 5 (glucose-regulated protein, 78 kDa = GRP78 = BiP = HSPA5), as identified in eluates (human) (UniProt P11021); test: BiP-Sepharose pull-down, RA synovial fluid sample 2B, 1 M NaCl eluate, MS; BiP may stem from the column
Hypothetical protein/Heat shock 70 kDa protein 5 (glucose-regulated protein, 78 kDa = GRP78 = BiP = HSPA5), as identified in eluates (human), sequence (P11021 19-654 limits assumed): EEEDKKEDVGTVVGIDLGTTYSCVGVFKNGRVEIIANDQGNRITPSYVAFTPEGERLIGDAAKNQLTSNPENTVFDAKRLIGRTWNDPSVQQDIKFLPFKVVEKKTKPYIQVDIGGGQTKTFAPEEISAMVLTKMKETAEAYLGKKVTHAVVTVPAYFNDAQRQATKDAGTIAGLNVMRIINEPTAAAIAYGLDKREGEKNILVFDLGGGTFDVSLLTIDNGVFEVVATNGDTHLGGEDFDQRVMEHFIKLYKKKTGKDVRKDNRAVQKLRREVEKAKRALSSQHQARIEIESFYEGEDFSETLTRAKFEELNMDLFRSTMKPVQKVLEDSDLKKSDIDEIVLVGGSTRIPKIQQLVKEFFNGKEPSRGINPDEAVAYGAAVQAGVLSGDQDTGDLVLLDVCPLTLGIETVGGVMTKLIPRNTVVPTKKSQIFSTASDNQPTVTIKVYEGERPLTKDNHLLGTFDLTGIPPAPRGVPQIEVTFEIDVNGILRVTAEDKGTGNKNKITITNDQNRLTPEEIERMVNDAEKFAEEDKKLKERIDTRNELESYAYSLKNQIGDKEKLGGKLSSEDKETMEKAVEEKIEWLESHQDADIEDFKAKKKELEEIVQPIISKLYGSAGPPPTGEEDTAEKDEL

[3] = target: Clusterin precursor (human) (UniProt P10909); test: BiP-Sepharose pull-down, RA synovial fluid sample 2B, 1 M NaCl eluate, MS; may be indirect
Clusterin precursor (human), sequence (P10909 23-449 limits assumed, form in doubt): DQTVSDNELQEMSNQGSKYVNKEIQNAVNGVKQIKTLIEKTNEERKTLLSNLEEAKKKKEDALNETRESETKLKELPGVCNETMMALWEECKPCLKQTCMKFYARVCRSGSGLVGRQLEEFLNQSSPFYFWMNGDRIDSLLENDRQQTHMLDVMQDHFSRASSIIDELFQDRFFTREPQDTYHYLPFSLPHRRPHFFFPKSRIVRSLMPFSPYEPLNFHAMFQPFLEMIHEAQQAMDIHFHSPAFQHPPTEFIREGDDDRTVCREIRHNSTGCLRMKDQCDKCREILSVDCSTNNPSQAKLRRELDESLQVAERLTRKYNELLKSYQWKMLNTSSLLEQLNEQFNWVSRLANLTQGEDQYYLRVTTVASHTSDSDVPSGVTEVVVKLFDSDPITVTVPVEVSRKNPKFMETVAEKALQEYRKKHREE

[4] = target: Hypothetical protein DKFZp686I04196 (Fragment)/Immunoglobulin heavy constant gamma 2 (G2m marker)/Ig gamma-2 chain C region (human) [IgG part: P01859]; test: as above
Hypothetical protein DKFZp686I04196 (Fragment)/Immunoglobulin heavy constant gamma 2 (G2m marker)/Ig gamma-2 chain C region (human) [IgG part: P01859], sequence (P01859 other isoform, or with tags, fused parts or gaps limits assumed): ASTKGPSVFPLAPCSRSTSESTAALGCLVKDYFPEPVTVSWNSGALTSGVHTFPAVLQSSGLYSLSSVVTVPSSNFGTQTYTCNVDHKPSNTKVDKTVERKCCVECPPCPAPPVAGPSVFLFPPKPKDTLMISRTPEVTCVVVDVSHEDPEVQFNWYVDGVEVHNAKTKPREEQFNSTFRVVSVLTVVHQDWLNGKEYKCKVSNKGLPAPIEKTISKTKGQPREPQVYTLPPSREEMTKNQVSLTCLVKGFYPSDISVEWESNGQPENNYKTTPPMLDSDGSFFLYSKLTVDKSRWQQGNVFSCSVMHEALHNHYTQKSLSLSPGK

[5] = target: Neutrophil defensin 1 precursor (human) (UniProt P59665); test: as above
Neutrophil defensin 1 precursor (human), sequence (P59665 65-94 limits assumed): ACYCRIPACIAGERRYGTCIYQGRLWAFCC

[6] = target: IGHG4 protein, immunoglobulin heavy constant gamma 4 (human) [IgG part: P01861]; test: as above
IGHG4 protein, immunoglobulin heavy constant gamma 4 (human) [IgG part: P01861], sequence (P01861 other isoform, or with tags, fused parts or gaps limits assumed): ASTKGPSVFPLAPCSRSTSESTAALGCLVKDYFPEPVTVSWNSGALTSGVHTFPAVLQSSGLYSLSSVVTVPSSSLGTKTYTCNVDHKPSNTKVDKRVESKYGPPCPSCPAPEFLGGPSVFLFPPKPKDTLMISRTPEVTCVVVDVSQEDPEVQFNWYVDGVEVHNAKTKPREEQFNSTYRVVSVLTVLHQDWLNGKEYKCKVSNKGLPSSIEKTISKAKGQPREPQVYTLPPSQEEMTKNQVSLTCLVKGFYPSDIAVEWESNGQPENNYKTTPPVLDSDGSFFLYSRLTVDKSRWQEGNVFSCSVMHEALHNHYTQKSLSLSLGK

[7] = target: IGHM protein, coagulation factor VII (serum prothrombin conversion accelerator) (human) (UniProt P08709); test: as above
[8] = target: FLJ00385 protein (Fragment), immunoglobulin heavy constant mu (human) (UniProt P01871); test: as above
FLJ00385 protein (Fragment), immunoglobulin heavy constant mu (human), sequence (P01871 other isoform, or with tags, fused parts or gaps limits assumed): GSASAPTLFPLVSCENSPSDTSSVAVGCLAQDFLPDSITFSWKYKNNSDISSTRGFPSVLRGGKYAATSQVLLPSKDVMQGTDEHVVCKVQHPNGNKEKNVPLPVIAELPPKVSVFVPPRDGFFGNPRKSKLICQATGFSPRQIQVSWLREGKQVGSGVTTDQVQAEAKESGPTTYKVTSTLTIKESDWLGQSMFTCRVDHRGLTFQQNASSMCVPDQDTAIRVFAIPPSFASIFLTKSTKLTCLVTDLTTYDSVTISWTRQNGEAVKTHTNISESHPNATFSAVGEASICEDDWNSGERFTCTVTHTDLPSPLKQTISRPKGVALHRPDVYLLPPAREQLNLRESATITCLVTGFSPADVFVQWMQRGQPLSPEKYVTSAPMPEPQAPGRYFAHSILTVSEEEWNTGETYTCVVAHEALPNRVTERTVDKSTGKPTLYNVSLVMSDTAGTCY

[9] = target: Heat shock 70 kDa protein 1L (human) (UniProt P34931); test: as above
Heat shock 70 kDa protein 1L (human), sequence (P34931 whole entry): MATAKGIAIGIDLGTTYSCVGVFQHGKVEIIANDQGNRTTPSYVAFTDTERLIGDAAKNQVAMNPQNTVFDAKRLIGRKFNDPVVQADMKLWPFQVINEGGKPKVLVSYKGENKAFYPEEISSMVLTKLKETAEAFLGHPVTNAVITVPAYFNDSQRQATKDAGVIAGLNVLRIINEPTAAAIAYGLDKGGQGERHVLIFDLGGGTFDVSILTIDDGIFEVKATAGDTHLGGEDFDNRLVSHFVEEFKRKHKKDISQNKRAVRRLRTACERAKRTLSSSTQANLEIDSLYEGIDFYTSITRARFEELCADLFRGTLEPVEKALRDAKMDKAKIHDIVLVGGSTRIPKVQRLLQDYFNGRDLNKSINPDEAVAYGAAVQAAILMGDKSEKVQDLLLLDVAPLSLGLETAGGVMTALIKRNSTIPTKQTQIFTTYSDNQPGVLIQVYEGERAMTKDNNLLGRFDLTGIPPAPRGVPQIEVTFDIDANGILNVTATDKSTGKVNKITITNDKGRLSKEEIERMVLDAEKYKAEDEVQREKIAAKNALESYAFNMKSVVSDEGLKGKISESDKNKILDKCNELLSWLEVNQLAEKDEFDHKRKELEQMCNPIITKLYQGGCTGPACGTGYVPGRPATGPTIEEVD

[10] = target: Histidine-rich glycoprotein precursor (human) (UniProt P04196); test: as above
Histidine-rich glycoprotein precursor (human), sequence (P04196 19-525 limits assumed): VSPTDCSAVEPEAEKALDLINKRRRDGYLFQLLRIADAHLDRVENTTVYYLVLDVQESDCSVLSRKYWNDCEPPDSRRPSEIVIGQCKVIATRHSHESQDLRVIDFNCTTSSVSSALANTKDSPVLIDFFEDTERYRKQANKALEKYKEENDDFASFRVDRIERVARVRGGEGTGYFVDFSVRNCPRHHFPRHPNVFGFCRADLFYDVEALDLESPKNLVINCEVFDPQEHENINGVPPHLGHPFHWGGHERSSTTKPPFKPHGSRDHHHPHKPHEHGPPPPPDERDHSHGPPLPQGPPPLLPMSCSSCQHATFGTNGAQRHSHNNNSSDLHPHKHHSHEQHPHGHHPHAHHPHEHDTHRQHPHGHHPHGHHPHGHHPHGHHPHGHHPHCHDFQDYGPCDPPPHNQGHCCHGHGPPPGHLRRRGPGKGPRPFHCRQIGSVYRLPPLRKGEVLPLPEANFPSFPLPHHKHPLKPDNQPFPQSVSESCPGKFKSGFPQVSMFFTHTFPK

[11] = target: fibronectin 1 isoform 4 preproprotein (human) (UniProt P02751); test: as above
[12] = target: Hypothetical protein/Heat shock 70 kDa protein 5 (glucose-regulated protein, 78 kDa = GRP78 = BiP = HSPA5), as identified in eluates (human) (UniProt P11021); test: BiP-Sepharose pull-down, RA synovial fluid sample 5B, 1 M NaCl eluate, MS; BiP may stem from the column

IGLC1 protein (immunoglobulin lambda C1)/immunoglobulin lambda chain/immunoglobulin C1 segment protein (fragment) (human), sequence (P0CG04 whole entry, the tested form may be a part): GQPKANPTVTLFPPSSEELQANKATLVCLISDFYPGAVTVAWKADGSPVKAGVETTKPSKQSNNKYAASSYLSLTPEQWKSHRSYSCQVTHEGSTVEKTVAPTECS

# of peptides [1]: 2 peptides
# of unique peptides [2]: 12 peptides
# of unique peptides [3]: 1 peptides
# of unique peptides [4]: 1 peptides
# of unique peptides [5]: 1 peptides
# of unique peptides [6]: 1 peptides
# of unique peptides [7]: 1 peptides
# of unique peptides [8]: 1 peptides
# of unique peptides [9]: 1 peptides
# of unique peptides [10]: 1 peptides
# of unique peptides [11]: 2 peptides
# of unique peptides [12]: 10 peptides
Substance: recombinant human BiP with C-terminal linker, FLAG-tag and His-tag (BiP-FLAG-His) (from UniProt P11021 19-654)
